# Experiments:
# [1] = target: ^P32-His-PKA-N8CUL1/RBX1 (CUL1/RBX1 neddylated with His-PKA-NEDD8, 32P-labelled) (UniProt Q13616)
# [2] = target: non-neddylated CUL1/RBX1 (StrepII2x-CUL1/RBX1), wild type (human) (UniProt Q13616); experiment: SPR; StrepII2x-CUL1/RBX1 (non-neddylated) captured on a Strep-Tactin CM5 chip (~100 RU), CSN injected in single cycle (40-5120 nM, 180 s contact), 25 C, HBS-P+ with 1 mM TCEP; steady-state fit, 1:1 Langmuir
# [3] = target: neddylated CUL1/RBX1 (StrepII2x-^N8CUL1/RBX1), wild type (UniProt Q13616); experiment: SPR; StrepII2x-^N8CUL1/RBX1 captured on a Strep-Tactin CM5 chip (~100 RU), CSN injected in single cycle (0.625-80 nM, 80 s contact), 25 C, 10 mM HEPES pH 7.4, 150 mM NaCl, 0.05% Tween 20, 1 mM TCEP; steady-state fit, 1:1 Langmuir
# Chain of neddylated CUL1/RBX1 (StrepII2x-^N8CUL1/RBX1), wild type (Q13616 whole entry, chain 1 of 3): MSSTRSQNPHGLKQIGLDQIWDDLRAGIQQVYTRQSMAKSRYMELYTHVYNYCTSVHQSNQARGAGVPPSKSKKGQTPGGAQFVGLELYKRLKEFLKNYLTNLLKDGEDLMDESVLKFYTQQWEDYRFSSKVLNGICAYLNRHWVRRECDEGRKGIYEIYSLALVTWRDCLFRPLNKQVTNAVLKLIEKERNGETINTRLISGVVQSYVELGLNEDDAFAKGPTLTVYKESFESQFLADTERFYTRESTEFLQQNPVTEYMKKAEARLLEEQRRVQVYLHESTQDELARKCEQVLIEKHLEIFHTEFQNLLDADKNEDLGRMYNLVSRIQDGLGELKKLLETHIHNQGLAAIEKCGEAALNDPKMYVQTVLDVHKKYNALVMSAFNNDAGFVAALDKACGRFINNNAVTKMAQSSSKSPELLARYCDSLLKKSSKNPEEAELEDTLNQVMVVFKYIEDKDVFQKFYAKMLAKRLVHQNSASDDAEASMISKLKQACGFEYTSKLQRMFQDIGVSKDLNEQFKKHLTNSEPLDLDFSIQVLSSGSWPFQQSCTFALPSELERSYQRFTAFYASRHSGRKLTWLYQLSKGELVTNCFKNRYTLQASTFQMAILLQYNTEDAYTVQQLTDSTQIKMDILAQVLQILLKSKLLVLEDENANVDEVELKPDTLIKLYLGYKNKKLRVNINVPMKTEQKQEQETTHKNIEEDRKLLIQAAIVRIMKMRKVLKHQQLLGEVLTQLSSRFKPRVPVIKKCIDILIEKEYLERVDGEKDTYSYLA
# Chain of neddylated CUL1/RBX1 (StrepII2x-^N8CUL1/RBX1), wild type (P62877 whole entry, chain 2 of 3, further chain): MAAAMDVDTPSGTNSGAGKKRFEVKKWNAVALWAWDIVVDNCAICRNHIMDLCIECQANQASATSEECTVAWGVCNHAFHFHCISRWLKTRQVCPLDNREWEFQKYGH
# Chain of neddylated CUL1/RBX1 (StrepII2x-^N8CUL1/RBX1), wild type (Q15843 1-76, chain 3 of 3, further chain): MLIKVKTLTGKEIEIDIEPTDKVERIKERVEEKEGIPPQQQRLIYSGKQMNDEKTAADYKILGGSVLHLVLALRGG
# Chain of ^P32-His-PKA-N8CUL1/RBX1 (CUL1/RBX1 neddylated with His-PKA-NEDD8, 32P-labelled) (Q13616 whole entry, chain 1 of 3): as the sequence (Q13616 whole entry, chain 1 of 3) above
# Chain of ^P32-His-PKA-N8CUL1/RBX1 (CUL1/RBX1 neddylated with His-PKA-NEDD8, 32P-labelled) (P62877 whole entry, chain 2 of 3, further chain): as the sequence (P62877 whole entry, chain 2 of 3, further chain) above
# Chain of ^P32-His-PKA-N8CUL1/RBX1 (CUL1/RBX1 neddylated with His-PKA-NEDD8, 32P-labelled) (Q15843 1-76, chain 3 of 3, further chain): as the sequence (Q15843 1-76, chain 3 of 3, further chain) above
# Chain of non-neddylated CUL1/RBX1 (StrepII2x-CUL1/RBX1), wild type (human) (Q13616 whole entry, chain 1 of 2): as the sequence (Q13616 whole entry, chain 1 of 3) above
# Chain of non-neddylated CUL1/RBX1 (StrepII2x-CUL1/RBX1), wild type (human) (P62877 whole entry, chain 2 of 2, further chain): as the sequence (P62877 whole entry, chain 2 of 3, further chain) above
Substance,"in vitro deneddylation activity, normalised to CSN^5WT [1]",Kd [2],Kd [3]
CSN^5T105F (9CSN with CSN5 T105F) (from UniProt Q13098 1-491; P61201 1-443; Q9UNS2 1-423; Q9BT78 1-406; Q92905 1-334; Q7L5N1 1-327; Q9H9Q2 1-264; Q99627 1-209; Q8WXC6 1-57) (complex),> 50 % reduction,,
"8CSN^5H138A (CSN^5H138A complex without CSNAP: CSN1-8, CSN5 H138A) (from UniProt Q13098 1-491; P61201 1-443; Q9UNS2 1-423; Q9BT78 1-406; Q92905 1-334; Q7L5N1 1-327; Q9H9Q2 1-264; Q99627 1-209)",,90 nM,6 nM

# From article PMC12848000
